Reference: patent US8404644 (MEAT AND LIVESTOCK AUSTRALIA, dated 2013)

Target: the molecule itself
Assay: gel filtration on Sephacryl 300 HR at pH 5.3 (self-association, homodimer)

B1: bovine βB2 crystallin (other)
chain: ASDHQTQAGKPQPLNPKIIIFEQENFQGHSHELNGPCPNLKETGVEKAGSVLVQAGPWVGYEQANCKGEQFVFEKGEYPRWDSWTSSRRTDSLSSLRPIKVDSQEHKITLYENPNFTGKKMEVIDDDVPSFHAHGYQEKVSSVRVQSGTWVGYQYPGYRGLQYLLEKGDYKDSGDFGAPQPQVQSVRRIRDMQWHQRGAFHPSS
modifications: N-terminus acetylated (as extracted from bovine eye)
notes: Native intact protein purified from bovine eye lens; Wound Heal 1 = gel filtration at pH 5.3; Wound Heal 2 = 100 kDa retentate plus gel filtration, and also holds some βA3 crystallin; also called Crystallin βB2; Wound Heal 1
binding result: binds
